For the data set, the system named is TMPRSS2-ERG fusion. The experiment in a line: RT-PCR detection of induced endogenous TMPRSS2-ERG fusion transcript in LNCaP cells expressing input RNA. The conditions noted are these: for induction of endogenous TMPRSS2-ERG fusion transcript (RT-PCR): LNCaP cells transfected with input RNA plasmid, DHT for 3 days; for Cell line(s) identified: fusion gene partners TMPRSS2-ERG, LNCaP.

This is an account of results in patent publication US12180473B2, “Chimeric RNA-driven genomic rearrangement in mammalian cells” (priority 2018, dated 2024).

Entries after “also recorded” stand apart in the source; their conditions may differ.

Experimental: LNCaP cells were cultured in this special medium for 24 hrs prior to plasmid transfection.
Transfection was performed using Turbofect transfection reagent (Thermo Scientific, #R0531) according to manufacturer's protocol. Briefly, 1 μg of a particular plasmid was first diluted in 100 μl of the serum-free DMEM followed by immediate mixing by pipetting. 4 μl of the transfection reagent was then added to the diluted DNA followed by mixing and incubation for 20 min. The DNA/transfection reagent mixture was then added drop wise to a well containing LNCaP cells in 1 ml medium.
For treating cultured cells, concentrated DHT stock was diluted as 10× working solutions (for example, for 0.9 μM final concentration, 10× is prepared as 9.0 μM) with the appropriate complete culture medium and used immediately. […] Six hrs post transfection, 111 μl of fresh 10× DHT working solutions was added to each well of 12-wells plate containing 1 ml medium and transfected cells.
Briefly, cells were suspended in 200 μl of PBS buffer and were then lysed with 400 μl of lysis buffer. The sample was then passed through the filter assembly resulting in the binding of the nucleic acids to the filter. The filter containing nucleic acids was then incubated with DNase I dissolved in DNase incubation buffer to degrade genomic and plasmid DNAs. The column was then rinsed with wash buffer and total RNA then eluted in a new tube for further analysis.
After the addition of dNTPs, the mixture was denatured at 65° C. for 5 minutes. This was followed by the addition of a master-mix containing 1× superscript buffer, 10 mM DTT, 5 mM Magnesium chloride, RNaseOUT and Superscript III reverse transcriptase. Reactions were carried out at 50° C. for 50 minutes and then terminated by incubation at 85° C. for 5 minutes. cDNA was then treated with RNase-H for 20 minutes at 37° C. to degrade RNA in DNA/RNA hybrid. 1 μl of cDNA was used as template for each subsequent PCR reaction.
The Denaturation, Annealing and Extension steps were performed 32 cycles for induced fusion RNA and 27 cycles for input RNA.

B1: Antisense-D3: input RNA, SEQ ID NO: 23 (nucleic acid)
antisense: TGTGCTCGCTTCGGCAGCACATATACTAACATTGGAACGATCCTGCAGTGAAGGGATAAGTGTCCAGAATCCCTGGATCTGGGATGGAATAAAGGATCTGGATGGTAAACGGAGAGTGCTGGGAGCGCTCGACCCTCGGGCGCACTCACCTGCCGCGCCGCGCTCCTCACACCCG
B1: the “induction of endogenous TMPRSS2-ERG fusion transcript (RT-PCR)” value (“induction” for short) was “complete loss of induction”.

B2: Antisense-D2: input RNA, SEQ ID NO: 22 (nucleic acid)
antisense: TGTGCTCGCTTCGGCAGCACATATACTAACATTGGAACGATCCTGCAGGAGAGACAGAGAGAGAGAGGCTGGTAGAGGGAAGAGACAGAAGAAAGATGAAGGGATAAGTGTCCAGAATCCCTGCCCAGCACTCTCCCAGCACCCCGGGAGGCGCCCTGCCCGGCTGGCCCCAGCG
Regarding B2, the “induction” value was “complete loss of induction”.

B3: Antisense-C1: input RNA, SEQ ID NO: 18 (nucleic acid)
antisense: TGTGCTCGCTTCGGCAGCACATATACTAACATTGGAACGATCCTGCAGTGAGCTCATGCTATTCCTATGACATAGATGAGCACTGGGTAGACCCCGTCCTGGTAACACTATTCATGCACTAACCCCAGGCGGGGGCCGTGGAGGGCAGGCGGACTAGGAGCCAGCTTTGGGGACC
Take B3: the “induction” value is given as “clearly induced fusion transcripts” and the “Cell line(s) identified” value is “LNCaP”.

B4: Antisense-B2: input RNA, SEQ ID NO: 16 (nucleic acid)
antisense: TGTGCTCGCTTCGGCAGCACATATACTAACATTGGAACGATCCTGCAGTGGCCTGAGCCTTGAAGAATGGGGTGTACTGGGTAAATCAAAATGGTGGGGAGCATTTCCAGATGGAGAAACTGCCCCTCCCCAGCCCGGACCCCGAGCCGGGACCCTGGTACCGGCGCCGCTCACC
For B4, the “induction” value is “complete loss of induction”.

B5: Antisense-C3: input RNA, SEQ ID NO: 20 (nucleic acid)
antisense: TGTGCTCGCTTCGGCAGCACATATACTAACATTGGAACGATCCTGCAGGTCCTGGTAACACTATTCATGCACTAACAAGTTGGTTGCCAGTGAGACTTGATTATTATGACTCTGGGAGTGCTGCCCAGGCGGGGGCCGTGGAGGGCAGGCGGACTAGGAGCCAGCTTTGGGGACC
Take B5: the “induction” value is “complete loss of induction”.

B6: Antisense-E1: input RNA, SEQ ID NO: 24 (nucleic acid)
antisense: TGTGCTCGCTTCGGCAGCACATATACTAACATTGGAACGATCCTGCAGAGGGTATTCAGTATTACTATTTGGCTTAGATAAGCTGGTAGTTACTTGCTAAAATTAATCTTTATTATAAAGCAGAAAGCCGCATTCTGACATCACTCTCCATGGACAAAGATTCTTCGCTTGATCA
For the molecule B6, the “induction” value is on record as “failed to induce fusion transcripts”.

B7: Antisense-1: input RNA, SEQ ID NO: 4 (nucleic acid)
antisense: TCAGATCGCCTGGAGACGCCATCCACGCTGTTTTGACCTCCATAGAAGACACCGGGACCGATCCAGCCTCCCCTCGAAGCTGATCCTGAGAACTTCAGGCTCCTGGGCAACGTGCTGGTCTGTGTGCTGGCCCATCACTTTGGCAAAGAATTCCTTGAGCCATTCACCTGGCTAGGGTTACATTCCATTTTGATGGTGACCCTGGCTGGGGGTTGAGACAGCCAATCCTGCTGAGGGACGCGTGGGCTCATCTTGGAAGTCTGTCCATAGTCGCTGGAGGAGGACGCGGTCATCTCTGTCTTAGCCAGGTGTGGCGTTCCGTAGGCACACTCAAACAACGACTGGTCCTCACTCACAACTGATAAGGCTTCCTGCCGCGCTCCAGGCGGCGCTCCCCGCCCCTCGCCCTCCGCCTCCGCCTCCGCCTCCTGCTTAGCTCGCGCCTACTCAAGCTTATCGATACCGTCGACCTCGAGGGCCCAGATCTAATTCACCCCACCAGTGCAGGCTGCCTATCAGAAAGTGGTGGCTGGTGTGGCTAATGCCCTGGCCCACAAGTATCACTAAGCTCGCTTTCTTGCTGTCCAATTTCTATTAAAGGTTCCTTTGTTCCCTAAGTCCAACTACTAAACTGGGGGATATTATGAAGGGCCTTCCGGAGCATCTGGATTCTGCCTAATAAAAAACATTTATTTTCATTGCAAAAAAA
With B7, the “induction” value is on record as “induced a clear band of 721 bp” and the “Cell line(s) identified” value is “LNCaP”.

B8: Sense-D1: input RNA, SEQ ID NO: 33 (nucleic acid)
sense: TGTGCTCGCTTCGGCAGCACATATACTAACATTGGAACGATCCTGCAGCGGGTGTGAGGAGCGCGGCGCGGCAGGTGAGTGCGCCCGAGGGTCGAGCGCTCAGGGATTCTGGACACTTATCCCTTCATCTTTCTTCTGTCTCTTCCCTCTACCAGCCTCTCTCTCTCTGTCTCTC
Turning to B8, the “induction” value is reported as “failed to induce fusion transcripts”.

B9: Sense-B1: input RNA, SEQ ID NO: 31 (nucleic acid)
sense: TGTGCTCGCTTCGGCAGCACATATACTAACATTGGAACGATCCTGCAGCGGAGGCGGAGGGCGAGGGGCGGGGAGCGCCGCCTGGAGCGCGGCAGGTGAGGCAGTTTCTCCATCTGGAAATGCTCCCCACCATATTGATTTACCCAGTACACCCCATTCTTCAAGGCTCAGGCCA
As for B9, the “induction” value is reported as “failed to induce fusion transcripts”.

B10: Antisense-G1: input RNA, SEQ ID NO: 26 (nucleic acid)
antisense: TGTGCTCGCTTCGGCAGCACATATACTAACATTGGAACGATCCTGCAGTTTATTCATGAGAAAATTCTGGCACAATGGAAAACCCTGGCAAGCAAAAGATAGGGGCAGCAGATGTCCTGGCCTACAAAGAACTCCAAGCCCATCGTCCCTAGAAAGCATGGTCTCCCATGACCCC
For the molecule B10, the “induction” value is listed as “failed to induce fusion transcripts”.

B11: Antisense-B1: input RNA, SEQ ID NO: 15 (nucleic acid)
antisense: TGTGCTCGCTTCGGCAGCACATATACTAACATTGGAACGATCCTGCAGTGGCCTGAGCCTTGAAGAATGGGGTGTACTGGGTAAATCAAAATGGTGGGGAGCATTTCCAGATGGAGAAACTGCCTCACCTGCCGCGCTCCAGGCGGCGCTCCCCGCCCCTCGCCCTCCGCCTCCG
Take B11: the “induction” value is recorded as “clearly induced fusion transcripts” and the “Cell line(s) identified” value is “LNCaP”.

B12: Antisense-5A: input RNA, SEQ ID NO: 13 (nucleic acid)
antisense: TGTGCTCGCTTCGGCAGCACATATACTAACATTGGAACGATCCTGCAGGCCGCTCACCTGCCGCGCTCCAGGCGGCGCTCCCCGCCCCTCGCCCTCCGCCAGACAGGAGTGAGAGATGGAAGCTCGCGCCTACTC
Regarding B12, the “induction” value was “loss of induction”.

B13: Antisense-7: input RNA, SEQ ID NO: 10 (nucleic acid)
antisense: TGTGCTCGCTTCGGCAGCACATATACTAACATTGGAACGATCCTGCAGCTTGAGCCATTCACCTGGCTAGGGTTACATTCCATATTGATGGTGACCCTGGCTGGGGGTTGAGACAGCCAATCCCGGACCCCGAGCCGGGACCCTGGTACCGGCGCCGCTCACCTGCCGCGCTCCAAGACAGGAGTGAGAGATGGAAGCTCGCGCCTACTC
As to B13, the “induction” value was “loss of induction; also recorded: did not”.

B14: Antisense-D1: input RNA, SEQ ID NO: 21 (nucleic acid)
antisense: TGTGCTCGCTTCGGCAGCACATATACTAACATTGGAACGATCCTGCAGGAGAGACAGAGAGAGAGAGGCTGGTAGAGGGAAGAGACAGAAGAAAGATGAAGGGATAAGTGTCCAGAATCCCTGAGCGCTCGACCCTCGGGCGCACTCACCTGCCGCGCCGCGCTCCTCACACCCG
In the case of B14, the “induction” value is “clearly induced fusion transcripts” and the “Cell line(s) identified” value was “LNCaP”.

B15: Antisense-F1: input RNA, SEQ ID NO: 25 (nucleic acid)
antisense: TGTGCTCGCTTCGGCAGCACATATACTAACATTGGAACGATCCTGCAGAATGGATGAATACATAAAATAAATTGTGGTGGATATATACAACGGAATATCATTTAGCCTTTATTATTATTGAGAACTGTGCCGAGCCGGGCAGGACAGGATGAGGTGGACCGAAGCGCCCAGGTGC
Take B15: the “induction” value is “failed to induce fusion transcripts”.

B16: Sense-C1: input RNA, SEQ ID NO: 32 (nucleic acid)
sense: TGTGCTCGCTTCGGCAGCACATATACTAACATTGGAACGATCCTGCAGGGTCCCCAAAGCTGGCTCCTAGTCCGCCTGCCCTCCACGGCCCCCGCCTGGGGTTAGTGCATGAAGAGTGTTACCAGGACGGGGTCTACCCAGTGCTCATCTATGTCATAGGAAGAGCATGAGCTCA
On to B16, for which the “induction” value is recorded as “failed to induce fusion transcripts”.

B17: Antisense-5B: input RNA, SEQ ID NO: 14 (nucleic acid)
antisense: TGTGCTCGCTTCGGCAGCACATATACTAACATTGGAACGATCCTGCAGCTTGAGCCATTCACCTGGCTAGGGTTACATTCCATATTGATGGTGACCCTGGCTGGGGGTTGAGACAGCCAATCC
modifications: input RNA, chemistry not given here
Regarding B17, the “induction” value is on record as “loss of induction”.

B18: Antisense-3: input RNA, SEQ ID NO: 6 (nucleic acid)
antisense: TGTGCTCGCTTCGGCAGCACATATACTAACATTGGAACGATCCTGCAGCTTGAGCCATTCACCTGGCTAGGGTTACATTCCATATTGATGGTGACCCTGGCTGGGGGTTGAGACAGCCAATCCCGGACCCCGAGCCGGGACCCTGGTACCGGCGCCGCTCACCTGCCGCGCTCCAGGCGGCGCTCCCCGCCCCTCGCCCTCCGCCAGACAGGAGTGAGAGATGGAAGCTCGCGCCTACTC
On to B18, for which the “induction” value was “unable to induce fusion”. The “induction” value (listed as antisense-3) is “inability of antisense-3 to induce; also recorded: did not”.
